# Source: US20120251547A1 (Amgen, published 2012)
# B1: AMH14/AML14 (antibody, V domains shown)
# VH: QVQLVQSGAEVKKPGASVKVSCKASGYTFTRYGISWVRQAPGQGLEWMGWISTYSGNTNYAQKLQGRVTMTTDTSTSTAYMELRSLRSDDTAVYYCARRQLYFDYWGQGTLVTVSS
# VL: EIVMTQSPATLSVSPGERATLSCRASQSVSSNLAWFQQKPGQAPRPLIYDASTRATGVPARFSGSGSGTDFTLTISSLQSEDFAVYYCQQYDNWPLTFGGGTKVEIK
# notes: human mAb from IgG2 XenoMouse mice; also called AM-14; antibody K
# Legend:
# [1] = biological target: cynomolgus IL-17RA, on cells (cynomolgus); test: cell-based or functional assay
# [2] = biological target: T1, cynomolgus IL-17RA, on cells (cynomolgus); test: FACS competition: non-clonal supernatant inhibiting biotin-huIL-17A (competitor) binding to cyno IL-17RA+ CHO cells
# T1 construct: whole, on cells; also called CHO-cynoIL-17RA; cyno IL-17RA+ CHO cells
# Experimental: The anti-IL-17RA antibodies were characterized. Non-clonal hybridoma supernatants were prepared in volumes of 1-2 mls (the Ig concentrations were not determined for these supernatants).
binder,measurement,setting,value
B1,"cynomolgous IL-17A-induced IL-6 production from JTC-12 cells, IC50",[1],~1.2 nM
same,MFI,[2],10
